Reference: paper PMC2936869, “Secreted fungal sulfhydryl oxidases: sequence analysis and characterisation of a representative flavin-dependent enzyme from Aspergillus oryzae” (BMC Biochemistry, 2010)

Experiments:
AoSOX1 = biological target: T1, AoSOX1 (Aspergillus oryzae, UniProt Q2UA33); assay: UV/visible absorption; cofactor released by thermal and chemical denaturation; assay type: binding; conditions: non-covalently bound cofactor; 20 mM Tris-HCl pH 7.0, 25 °C
T1 construct: gene AO090102000564; secreted full-length protein, 384 aa including predicted 19-residue signal peptide (removed); C-terminal His6 tag added but apparently cleaved off by host protease; expressed in Trichoderma reesei; N-glycosylated; MW 43959 by MS
T1 sequence (Q2UA33 20-384): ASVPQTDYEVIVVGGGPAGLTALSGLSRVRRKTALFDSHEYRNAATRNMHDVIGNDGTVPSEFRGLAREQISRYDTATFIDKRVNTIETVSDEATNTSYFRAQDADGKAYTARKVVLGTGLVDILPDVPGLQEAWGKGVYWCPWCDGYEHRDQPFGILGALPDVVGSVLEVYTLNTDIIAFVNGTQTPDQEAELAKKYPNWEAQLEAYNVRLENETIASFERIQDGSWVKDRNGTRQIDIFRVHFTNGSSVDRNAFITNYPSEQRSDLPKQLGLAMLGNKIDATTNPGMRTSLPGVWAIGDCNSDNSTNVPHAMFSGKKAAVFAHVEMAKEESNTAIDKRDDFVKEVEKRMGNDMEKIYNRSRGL

[1] = substrate: OCCS; assay: initial rates, Michaelis-Menten (HVA-peroxidase coupled assay, the paper's general assay); assay type: biochemical, Aspergillus oryzae; conditions: co-substrate O2, general assay in 50 mM potassium phosphate, 0.3 mM EDTA, pH 7.5
Source text: (§1) initial rates, Michaelis-Menten (HVA-peroxidase coupled assay, the paper's general assay) on AoSOX1

[2] = substrate: N[C@@H](CS)C(=O)O; assay: as above; assay type: biochemical, Aspergillus oryzae; conditions: co-substrate O2, general assay in 50 mM potassium phosphate, 0.3 mM EDTA, pH 7.5
Source text: as §1

[3] = substrate: N[C@H](CS)C(=O)O; assay: as above; assay type: biochemical, Aspergillus oryzae; conditions: co-substrate O2, general assay in 50 mM potassium phosphate, 0.3 mM EDTA, pH 7.5
Source text: as §1

## Cc1cc2nc3c(=O)[nH]c(=O)nc-3n(C[C@H](O)[C@H](O)[C@H](O)COP(=O)(O)OP(=O)(O)OC[C@H]3O[C@@H](n4cnc5c(N)ncnc54)[C@H](O)[C@@H]3O)c2cc1C [FAD]
AoSOX1
  UV/visible absorption; cofactor released by thermal and chemical denaturation: The cofactor was spectrophotometrically identified to be FAD after the cofactor was released

B1: AoSOX1 (Aspergillus oryzae RIB40) (protein)
chain: T1 sequence (Q2UA33 20-384)
notes: secreted full-length protein, 384 aa including predicted 19-residue signal peptide (removed); C-terminal His6 tag added but apparently cleaved off by host protease; expressed in Trichoderma reesei; N-glycosylated; MW 43959 by MS
[1]
  Km: 9.73 ± 0.08 mM
  Vmax/Km: 13100 min⁻¹
[2]
  Km: 6.11 ± 0.13 mM
  Vmax/Km: 21800 min⁻¹
[3]
  Km: 1.55 ± 0.03 mM
  Vmax/Km: 9780 min⁻¹
  kcat: 5950 s⁻¹
